Source: US7556938B1, “Nucleic acids encoding potassium channel interactors” (Millennium Pharmaceuticals, Inc., priority 1998, dated 2009)

T1: rKv4.3N (Rattus norvegicus, UniProt Q62897)
T1 construct: expressed in transfected cells; host or cells: yeast HF7c (bait), mated with Y187 (fish)
T1 sequence (Q62897 1-180): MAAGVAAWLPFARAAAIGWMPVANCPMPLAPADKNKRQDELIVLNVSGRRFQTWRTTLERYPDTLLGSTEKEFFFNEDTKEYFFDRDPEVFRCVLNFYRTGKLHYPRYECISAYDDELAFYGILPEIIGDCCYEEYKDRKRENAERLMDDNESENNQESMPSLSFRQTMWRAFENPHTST

T2: rKv4.2N (Rattus norvegicus, UniProt Q63881)
T2 construct: the N-terminal domains of Kv4.3, Kv4.2 were expressed as “baits” (Kv4.3N, Kv4.2N, respectively); expressed in transfected cells; host or cells: yeast HF7c (baits), mated with Y187 (fish)
T2 sequence (Q63881 1-184 limits assumed): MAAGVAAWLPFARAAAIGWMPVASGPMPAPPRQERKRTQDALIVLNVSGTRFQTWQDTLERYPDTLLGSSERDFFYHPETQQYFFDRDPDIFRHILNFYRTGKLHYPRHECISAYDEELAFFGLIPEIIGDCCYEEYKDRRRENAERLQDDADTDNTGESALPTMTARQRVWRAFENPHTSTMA

B1: Rat 19r: identical to Rat phosphatidylinositol (PTDINS) transfer protein alpha (protein)
chain: MVLLKEYRVILPVSVDEYQVGQLYSVAEASKNETGGGEGVEVLVNEPYEKDDGEKGQYTHKIYHLQSKVPTFVRMLAPEGALNIHEKAWNAYPYCRTVITNEYMKEDFLIKIETWHKPDLGTQENVHKLEPEAWKHVEAIYIDIADRSQVLSKDYKAEEDPAKFKSIKTGRGPLGPNWKQELVNQKDCPYMCAYKLVTVKFKWWGLQNKVENFIHKQEKRLFTNFHRQLFCWLDKWVDLTMDDIRRMEEETKRQLDEMRQKDPVKGMTADD
B2: Rat 7q: identical to RAB2 (rat RAS-related protein) (protein)
chain: MAYAYLFKYIIIGDTGVGKSCLLLQFTDKRFQPVHDLTIGVEFGARMITIDGKQIKLQIWDTAGQESFRSITRSYYRGAAGALLVYDITRRDTFNHLTTWLEDARQHSNSNMVIMLIGNKSDLESRREVKKEEGEAFAREHGLIFMETSAKTASNVEEAFINTAKEIYEKIQEGVFDINNEANGIKIGPQHAATNASHGGNQGGQQAGGGCC

Experiments:
[1] = target: T1, rKv4.3N; experiment: Yeast two-hybrid binding and specificity test, Kv4.3 N-terminal bait; settings: for preference between rKv4.3N and rKv4.2N in yeast two-hybrid assay: rKv4.3N versus rKv4.2N
Protocol: The first 180 amino acids of rKv4.3 (described in Serdio P. et al. (1996) J. Neurophys 75:2174-2179) were amplified by PCR and cloned in frame into pGBT9 resulting in plasmid pFWA2, (hereinafter “bait”). This bait was transformed into the two-hybrid screening strain HF7c and tested for expression and self-activation. The bait was validated for expression by Western blotting.
(§1) Two-hybrid screens were carried out essentially as described in Bartel, P. et al. (1993) “Using the Two-Hybrid System to Detect Polypeptide-Polypeptide Interactions” in Cellular Interactions in Development: A Practical Approach, Hartley, D. A. ed. Oxford University Press, Oxford, pp. 153-179, with a bait-library pair of rkv4.3 bait-rat mid brain library. A filter disk beta-galactosidase (beta-gal) assay was performed essentially as previously described (Brill et al. (1994) Mol. Biol. Cell. 5:297-312). Clones that were positive for both reporter gene activity (His and beta-galactosidase) were scored and fish, plasmids were isolated from yeast, transformed into E. coli strain KC8, DNA plasmids were purified and the resulting plasmids were sequenced by conventional methods (Sanger F. et al. (1977) PNAS, 74: 5463-67).
(§2) Positive interactor clones were subjected to a binding specificity test where they were exposed to a panel of related and unrelated baits by a mating scheme previously described (Finley R. L. Jr. et al. (1994) PNAS, 91(26):12980-12984). Briefly, positive fish plasmids were transformed into Y187 and the panel of baits were transformed into HF7c. Transformed fish and bait cells were streaked out as stripes on selective medium plates, mated on YPAD plates, and tested for reporter gene activity.

[2] = target: T3, rKv1.1N (Rattus norvegicus, UniProt P10499); experiment: Yeast two-hybrid binding and specificity test, Kv1.1 N-terminal bait
T3 construct: expressed in transfected cells; host or cells: yeast HF7c (baits), mated with Y187 (fish)
T3 sequence (P10499 1-164 limits assumed): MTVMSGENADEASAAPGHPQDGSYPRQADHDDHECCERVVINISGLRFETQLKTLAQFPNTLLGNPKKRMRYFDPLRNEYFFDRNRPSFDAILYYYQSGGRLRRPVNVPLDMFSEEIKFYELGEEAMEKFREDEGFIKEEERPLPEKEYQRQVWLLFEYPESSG
Protocol: as §1, §2

[3] = target: T2, rKv4.2N; experiment: Yeast two-hybrid binding and specificity test, Kv4.2 N-terminal bait
Protocol: as §1, §2

Molecule | binding to rKv4.3N in yeast two-hybrid assay [1] | preference between rKv4.3N and rKv4.2N in yeast two-hybrid assay [1] | binding to rKv1.1N in yeast two-hybrid assay [2] | binding to rKv4.2N in yeast two-hybrid assay [3]
B1 | binds | slight preference for rKv4.3N | does not bind | binds
B2 | binds | same strength | does not bind | binds
